B1: Vtc4_(R264A/R266A/E426N) (natural protein, Baker's yeast)
chain: KFGEHLSKSLIRQYSYYYISYDDLKTELEDNLSKNNGQWTQELETDFLESLEIELDKVYTFCKVKHSEVFRRVKEVQEQVQHTVRLLDSNNPPTQLDFEILEEELSDIIADVHDLAKFSRLNYTGFQKIIKKHDKKTGFILKPVFQVRLDSKPFFKENYDELVVKISQLYDIARTSGRPIKGDSSAGGKQQNFVRQTTKYWVHPDNITELKLIILKHLPVLVFNTNKEFEREDSAITSIYFDNENLDLYYGRLRKDEGAEAHALAWYGGMSTDTIFVERKTHREDWTGEKSVKARFALKERHVNDFLKGKYTVDQVFAKMRKEGKKPMNEIENLEALASEIQYVMLKKKLRPVVRSFYNRTAFQLPGDARVRISLDTELTMVREDNFDGVDRTHKNWRRTDIGVDWPFKQLDDKDICRFPYAVLNVKLQTQLGQEPPEWVRELVGSHLVEPVPKFSKFIHGVATLLNDKVDSIPFWLPQMDVDIRKPPLPTNIEITRPGRSDNEDNDFDEDDEDDAALVAAMTNAPGNSLDIEESVGYGATSAPTSNTNHVVESANAAYYQRKIRNAENPISKKYYEIVAFFDHYFNGDQISKIPKGTTFDTQIRAPPGKTICVPVRVEPKVYFATERTYLSWLSISILLGGVSTTLLTYGSPTAMIGSIGFFITSLAVLIRTVMVYAKRVVNIRLKRAVDYEDKIGPGMVSVFLILSILFSFFCNLVAK
notes: Vtc4, yeast, UniProt P47075; codon-optimized DNA in the pMlink vector; three substitutions in the TTM domain; also called catalytically impaired Vtc4; source: Expi293F cells, transiently cotransfected with the Vtc1 and Vtc3 plasmids; purified as part of the VTC complex with 1 mM InsP6 (anti-Flag resin, Strep-Tactin resin, SEC); not shown: 2×Strep, C-terminal, kept
B2: Vtc1 (natural protein, Baker's yeast)
chain: SSAPLLQRTPGKKIALPTRVEPKVFFANERTFLSWLNFTVMLGGLGVGLLNFGDKIGRVSAGLFTFVAMGTMIYALVTYHWRAAAIRRRGSGPYDDRLGPTLLCFFLLVAVIINFILRLKYNDANTKL
notes: Vtc1, yeast, UniProt P40046; codon-optimized DNA in the pMlink vector; Three copies of Vtc1 stand in the Vtc1/Vtc3/Vtc4 complex (3:1:1); also called Vtc1A; Vtc1B; source: Expi293F cells, transiently cotransfected with the Vtc3 and Vtc4 plasmids; purified as part of the VTC complex (anti-Flag resin, Strep-Tactin resin; SEC for the cryo-EM sample)

What was measured:
[1] = target: T1, Vtc1/Vtc3/Vtc4 complex (VTC complex) (Saccharomyces cerevisiae, UniProt P47075+Q02725); assay: polyP synthesis, TBE-PAGE and DAPI; format: biochemical; details: 15 mM ATP, 10 mM MgCl2, 1 mM MnCl2, 0.5 mM pyrophosphate, InsP6, 27 °C, 4 h
T1 construct: full-length subunits co-expressed in Expi293F; Vtc1 C-terminal HA, Vtc3 N-terminal 3xFlag, Vtc4 C-terminal 2xStrep; detergent-purified; 3:1:1 pentamer; with Vacuolar transporter chaperone complex subunit 1
T1 sequence (P47075 1-721): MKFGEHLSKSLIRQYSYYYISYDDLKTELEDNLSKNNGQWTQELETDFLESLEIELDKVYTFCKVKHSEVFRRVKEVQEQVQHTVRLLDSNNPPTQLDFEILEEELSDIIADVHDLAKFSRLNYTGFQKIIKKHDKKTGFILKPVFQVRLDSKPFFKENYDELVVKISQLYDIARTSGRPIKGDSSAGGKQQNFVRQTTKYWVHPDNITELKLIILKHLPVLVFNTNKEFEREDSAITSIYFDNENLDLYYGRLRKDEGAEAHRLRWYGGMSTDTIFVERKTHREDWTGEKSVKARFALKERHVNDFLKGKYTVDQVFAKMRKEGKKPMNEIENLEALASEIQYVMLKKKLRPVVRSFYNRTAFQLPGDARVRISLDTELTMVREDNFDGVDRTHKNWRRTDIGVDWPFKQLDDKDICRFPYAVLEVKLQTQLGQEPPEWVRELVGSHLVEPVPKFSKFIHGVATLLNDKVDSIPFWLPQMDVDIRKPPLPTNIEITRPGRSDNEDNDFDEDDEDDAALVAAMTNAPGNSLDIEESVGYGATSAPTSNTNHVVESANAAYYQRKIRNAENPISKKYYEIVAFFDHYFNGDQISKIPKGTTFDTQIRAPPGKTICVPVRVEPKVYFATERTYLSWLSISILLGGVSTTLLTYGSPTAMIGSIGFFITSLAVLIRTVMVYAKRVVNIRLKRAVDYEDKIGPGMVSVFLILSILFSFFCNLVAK
T1 sequence (Q02725 1-835): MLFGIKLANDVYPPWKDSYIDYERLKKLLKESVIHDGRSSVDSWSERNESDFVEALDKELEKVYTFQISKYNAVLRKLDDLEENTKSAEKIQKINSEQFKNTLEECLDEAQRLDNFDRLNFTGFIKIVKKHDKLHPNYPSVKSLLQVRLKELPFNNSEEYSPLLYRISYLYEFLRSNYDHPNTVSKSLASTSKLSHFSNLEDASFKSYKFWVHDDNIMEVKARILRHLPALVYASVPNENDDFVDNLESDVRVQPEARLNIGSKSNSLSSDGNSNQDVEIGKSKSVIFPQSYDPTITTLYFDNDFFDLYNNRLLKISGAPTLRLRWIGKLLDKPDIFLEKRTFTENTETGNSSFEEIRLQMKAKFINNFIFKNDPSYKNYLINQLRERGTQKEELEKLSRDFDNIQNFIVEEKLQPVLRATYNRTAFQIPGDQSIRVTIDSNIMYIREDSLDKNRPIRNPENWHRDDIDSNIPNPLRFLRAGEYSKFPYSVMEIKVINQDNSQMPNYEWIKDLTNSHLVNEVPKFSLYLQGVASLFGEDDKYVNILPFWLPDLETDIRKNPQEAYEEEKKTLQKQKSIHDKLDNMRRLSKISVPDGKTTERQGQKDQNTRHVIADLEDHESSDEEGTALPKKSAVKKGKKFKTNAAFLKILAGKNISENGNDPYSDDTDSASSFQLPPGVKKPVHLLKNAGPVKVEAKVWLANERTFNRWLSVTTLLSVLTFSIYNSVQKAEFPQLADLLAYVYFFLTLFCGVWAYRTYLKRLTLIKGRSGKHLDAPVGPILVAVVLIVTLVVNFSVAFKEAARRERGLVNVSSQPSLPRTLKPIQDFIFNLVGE
T1 sequence (P40046 2-129 partner): B2 chain

[2] = target: T2, Vtc3 (Baker's yeast, UniProt Q02725 1-835); assay: cryo-EM structure; Vtc1/Vtc3/Vtc4_(R264A/R266A/E426N) complex co-expressed in Expi293F and purified with 1 mM InsP6, 0.02% GDN, 25 mM Tris-HCl pH 8.0, 150 mM NaCl; 3.0 Å; details: both partners purified
T2 construct: Vtc3, yeast, UniProt Q02725; codon-optimized DNA in the pMlink vector; source: Expi293F cells, transiently cotransfected with the Vtc1 and Vtc4 plasmids; purified as part of the VTC complex (anti-Flag resin, Strep-Tactin resin; SEC for the cryo-EM sample); not shown: 3×Flag, N-terminal, kept
T2 sequence: T1 sequence (Q02725 1-835)

[3] = target: the molecule itself; assay: as above
[4] = target: B1; assay: as above; details: both partners purified

Molecule	polyP synthesis, TBE-PAGE and DAPI [1]	stoichiometry N [2]	stoichiometry N [3]	stoichiometry N [4]
Nc1ncnc2c1ncn2[C@@H]1O[C@H](COP(=O)(O)OP(=O)(O)OP(=O)(O)O)[C@@H](O)[C@H]1O [ATP]	we incubated VTC complex with ATP and InsP6			
B1		1		
B2		3	3	3
